The record followed here is publication PMC13065467, “Assembly and phosphoregulatory mechanisms of the budding yeast outer kinetochore KMN complex” (The Journal of Cell Biology, 2026).

B1: Isolated Mis12c^Mtw1c, full-length and wild-type proteins (Dsn1, Nsl1, Mis12^Mtw1, Nnf1) (complex, S. cerevisiae)
chain 1: MSLEPTQTVSGTPPMLHQRTHKQVYPLRMETIPILESDSKATLQSNEPTQKDEEETEYFENKQSVSNLSPDLKFKRHKNKHIQGFPTLGERLDNLQDIKKAKRVENFNSSAPIADDNHSGDATANATANATANATANVNASAMPAPYMPYYYYYHPMNAPTPAMIPYPGSPMHSIMPNSSLQPFYSQPTAAGGPDMTTPQNISSSQQLLPAPQLFPYGSFHQQQLQQPHYIQRTRERKKSIGSQRGRRLSMLASQANGGSTIISPHKDIPEEDFYTVVGNASFGKNLQIRQLFNWCLMRSLHKLELKAKNQEEEGELEHLTKKSKLESTKAETDYVDPKRLAMVIIKEFVDDLKKDHIAIDWEDEEKYEDEDEEKILDNTENYDDTELRQLFQENDDDDDDDDEVDYSEIQRSRRKFSERRKALPKEPKKLLPNSKNVENTKNLSILTSKVNAIKNEVKEWAVTLDTSRPDLEWQELTSFSSQPLEPLSDTEEPDLAIADVETKLETKVDELRYQSHILNSHSLALNEITNSKVNKLNIETMRKISSETDDDHSQVINPQQLLKGLSLSFSKKLDL
chain 2: MSQGQSKKLDVTVEQLRSIYHQFHDILEEKTDLHLPKKEYDDDAVRREVQIQLQEFLLSAMTMASKSLEVVNADTVGKTVKQLIMESQEKYMEPFDLDLNEQVRKMYQEWEDETVKVAQLRQTGPAKINEVYNNSKDEYLAQLDGRIGVLQARMMQQQSADHDDSTDDADDHINWEHIKQDYVASLNELYQTQQDLPKVRYNVEKVKRLMDFLEED
chain 3: MSAPTMRSTSILTEHLGYPPISLVDDIINAVNEIMYKCTAAMEKYLLSKSKIGEEDYGEEIKSGVAKLESLLENSVDKNFDKLELYVLRNVLRIPEEYLDANVFRLENQKDLVIVDENELKKSEEKLREKVNDVELAFKKNEMLLKRVTKVKRLLFTIRGFKQKLNELLKCKDDVQLQKILESLKPIDDTMTLLTDSLRKLYVDSESTSSTEEVEALLQRLKTNGKQNNKDFRTRYIDIRTNNVLRKLGLLGDKEDEKQSAKPDARTQAGDIVSIDIEEPQLDLLDDVL
chain 4: MVNSHGIRYIRLKQVFNRALDQSISKLQSWDKVSSCFPQYVNSKQGAINVANCQRQLTEFWTELCQREFKEIMEERNVEQKLNELDELILEAKERYTDRDQDEVNKGPAIDELSSKELVECHLYSQRMHAIHEIDERLAKVNEMNDQLAQELKDLETQVEVEKNEIGKMYDEYLGSHTDQPANVLLVQSLNDMVLELKENY
notes: Dsn1, S. cerevisiae S288c; Nsl1, S. cerevisiae S288c; Mis12^Mtw1, S. cerevisiae S288c; Nnf1, S. cerevisiae S288c; source: High-5 insect cells (two baculoviruses), purified (Strep-Tactin, SEC); copies: + + +
B2: Mis12c^Mtw1c_Mis12ΔC (isolated Mis12c^Mtw1c with Mis12^Mtw1 residues 272–289 deleted) (complex, S. cerevisiae)
chain 1: MSLEPTQTVSGTPPMLHQRTHKQVYPLRMETIPILESDSKATLQSNEPTQKDEEETEYFENKQSVSNLSPDLKFKRHKNKHIQGFPTLGERLDNLQDIKKAKRVENFNSSAPIADDNHSGDATANATANATANATANVNASAMPAPYMPYYYYYHPMNAPTPAMIPYPGSPMHSIMPNSSLQPFYSQPTAAGGPDMTTPQNISSSQQLLPAPQLFPYGSFHQQQLQQPHYIQRTRERKKSIGSQRGRRLSMLASQANGGSTIISPHKDIPEEDFYTVVGNASFGKNLQIRQLFNWCLMRSLHKLELKAKNQEEEGELEHLTKKSKLESTKAETDYVDPKRLAMVIIKEFVDDLKKDHIAIDWEDEEKYEDEDEEKILDNTENYDDTELRQLFQENDDDDDDDDEVDYSEIQRSRRKFSERRKALPKEPKKLLPNSKNVENTKNLSILTSKVNAIKNEVKEWAVTLDTSRPDLEWQELTSFSSQPLEPLSDTEEPDLAIADVETKLETKVDELRYQSHILNSHSLALNEITNSKVNKLNIETMRKISSETDDDHSQVINPQQLLKGLSLSFSKKLDL
chain 2: MSQGQSKKLDVTVEQLRSIYHQFHDILEEKTDLHLPKKEYDDDAVRREVQIQLQEFLLSAMTMASKSLEVVNADTVGKTVKQLIMESQEKYMEPFDLDLNEQVRKMYQEWEDETVKVAQLRQTGPAKINEVYNNSKDEYLAQLDGRIGVLQARMMQQQSADHDDSTDDADDHINWEHIKQDYVASLNELYQTQQDLPKVRYNVEKVKRLMDFLEED
chain 3: MSAPTMRSTSILTEHLGYPPISLVDDIINAVNEIMYKCTAAMEKYLLSKSKIGEEDYGEEIKSGVAKLESLLENSVDKNFDKLELYVLRNVLRIPEEYLDANVFRLENQKDLVIVDENELKKSEEKLREKVNDVELAFKKNEMLLKRVTKVKRLLFTIRGFKQKLNELLKCKDDVQLQKILESLKPIDDTMTLLTDSLRKLYVDSESTSSTEEVEALLQRLKTNGKQNNKDFRTRYIDIRTNNVLRKLGLLGDKEDEKQSAKPDARTQAGD
chain 4: MVNSHGIRYIRLKQVFNRALDQSISKLQSWDKVSSCFPQYVNSKQGAINVANCQRQLTEFWTELCQREFKEIMEERNVEQKLNELDELILEAKERYTDRDQDEVNKGPAIDELSSKELVECHLYSQRMHAIHEIDERLAKVNEMNDQLAQELKDLETQVEVEKNEIGKMYDEYLGSHTDQPANVLLVQSLNDMVLELKENY
notes: Dsn1, S. cerevisiae S288c; Nsl1, S. cerevisiae S288c; Nnf1, S. cerevisiae S288c; also called Mis12^Mtw1_Δ272-C; source: High-5 insect cells (two baculoviruses), purified (Strep-Tactin, SEC); copies: + + +
B3: Mis12c^Mtw1c_Nnf1ΔC (isolated Mis12c^Mtw1c with Nnf1 residues 180–201 deleted) (complex, S. cerevisiae)
chain 1: MSLEPTQTVSGTPPMLHQRTHKQVYPLRMETIPILESDSKATLQSNEPTQKDEEETEYFENKQSVSNLSPDLKFKRHKNKHIQGFPTLGERLDNLQDIKKAKRVENFNSSAPIADDNHSGDATANATANATANATANVNASAMPAPYMPYYYYYHPMNAPTPAMIPYPGSPMHSIMPNSSLQPFYSQPTAAGGPDMTTPQNISSSQQLLPAPQLFPYGSFHQQQLQQPHYIQRTRERKKSIGSQRGRRLSMLASQANGGSTIISPHKDIPEEDFYTVVGNASFGKNLQIRQLFNWCLMRSLHKLELKAKNQEEEGELEHLTKKSKLESTKAETDYVDPKRLAMVIIKEFVDDLKKDHIAIDWEDEEKYEDEDEEKILDNTENYDDTELRQLFQENDDDDDDDDEVDYSEIQRSRRKFSERRKALPKEPKKLLPNSKNVENTKNLSILTSKVNAIKNEVKEWAVTLDTSRPDLEWQELTSFSSQPLEPLSDTEEPDLAIADVETKLETKVDELRYQSHILNSHSLALNEITNSKVNKLNIETMRKISSETDDDHSQVINPQQLLKGLSLSFSKKLDL
chain 2: MSQGQSKKLDVTVEQLRSIYHQFHDILEEKTDLHLPKKEYDDDAVRREVQIQLQEFLLSAMTMASKSLEVVNADTVGKTVKQLIMESQEKYMEPFDLDLNEQVRKMYQEWEDETVKVAQLRQTGPAKINEVYNNSKDEYLAQLDGRIGVLQARMMQQQSADHDDSTDDADDHINWEHIKQDYVASLNELYQTQQDLPKVRYNVEKVKRLMDFLEED
chain 3: MSAPTMRSTSILTEHLGYPPISLVDDIINAVNEIMYKCTAAMEKYLLSKSKIGEEDYGEEIKSGVAKLESLLENSVDKNFDKLELYVLRNVLRIPEEYLDANVFRLENQKDLVIVDENELKKSEEKLREKVNDVELAFKKNEMLLKRVTKVKRLLFTIRGFKQKLNELLKCKDDVQLQKILESLKPIDDTMTLLTDSLRKLYVDSESTSSTEEVEALLQRLKTNGKQNNKDFRTRYIDIRTNNVLRKLGLLGDKEDEKQSAKPDARTQAGDIVSIDIEEPQLDLLDDVL
chain 4: MVNSHGIRYIRLKQVFNRALDQSISKLQSWDKVSSCFPQYVNSKQGAINVANCQRQLTEFWTELCQREFKEIMEERNVEQKLNELDELILEAKERYTDRDQDEVNKGPAIDELSSKELVECHLYSQRMHAIHEIDERLAKVNEMNDQLAQELKDLETQVEVEKNEIGKMYDEYLGSHTD
notes: Dsn1, S. cerevisiae S288c; Nsl1, S. cerevisiae S288c; Mis12^Mtw1, S. cerevisiae S288c; Nnf1^Δ180-C: Nnf1, S. cerevisiae S288c, residues 180-201 deleted; also called Nnf1^Δ180-C; source: High-5 insect cells (two baculoviruses), purified (Strep-Tactin, SEC); copies: + + +
B4: Mis12c^Mtw1c_Mis12ΔC-Nnf1ΔC (isolated Mis12c^Mtw1c with Mis12^Mtw1 residues 272–289 and Nnf1 residues 180–201 deleted) (complex, S. cerevisiae)
chain 1: MSLEPTQTVSGTPPMLHQRTHKQVYPLRMETIPILESDSKATLQSNEPTQKDEEETEYFENKQSVSNLSPDLKFKRHKNKHIQGFPTLGERLDNLQDIKKAKRVENFNSSAPIADDNHSGDATANATANATANATANVNASAMPAPYMPYYYYYHPMNAPTPAMIPYPGSPMHSIMPNSSLQPFYSQPTAAGGPDMTTPQNISSSQQLLPAPQLFPYGSFHQQQLQQPHYIQRTRERKKSIGSQRGRRLSMLASQANGGSTIISPHKDIPEEDFYTVVGNASFGKNLQIRQLFNWCLMRSLHKLELKAKNQEEEGELEHLTKKSKLESTKAETDYVDPKRLAMVIIKEFVDDLKKDHIAIDWEDEEKYEDEDEEKILDNTENYDDTELRQLFQENDDDDDDDDEVDYSEIQRSRRKFSERRKALPKEPKKLLPNSKNVENTKNLSILTSKVNAIKNEVKEWAVTLDTSRPDLEWQELTSFSSQPLEPLSDTEEPDLAIADVETKLETKVDELRYQSHILNSHSLALNEITNSKVNKLNIETMRKISSETDDDHSQVINPQQLLKGLSLSFSKKLDL
chain 2: MSQGQSKKLDVTVEQLRSIYHQFHDILEEKTDLHLPKKEYDDDAVRREVQIQLQEFLLSAMTMASKSLEVVNADTVGKTVKQLIMESQEKYMEPFDLDLNEQVRKMYQEWEDETVKVAQLRQTGPAKINEVYNNSKDEYLAQLDGRIGVLQARMMQQQSADHDDSTDDADDHINWEHIKQDYVASLNELYQTQQDLPKVRYNVEKVKRLMDFLEED
chain 3: MSAPTMRSTSILTEHLGYPPISLVDDIINAVNEIMYKCTAAMEKYLLSKSKIGEEDYGEEIKSGVAKLESLLENSVDKNFDKLELYVLRNVLRIPEEYLDANVFRLENQKDLVIVDENELKKSEEKLREKVNDVELAFKKNEMLLKRVTKVKRLLFTIRGFKQKLNELLKCKDDVQLQKILESLKPIDDTMTLLTDSLRKLYVDSESTSSTEEVEALLQRLKTNGKQNNKDFRTRYIDIRTNNVLRKLGLLGDKEDEKQSAKPDARTQAGD
chain 4: MVNSHGIRYIRLKQVFNRALDQSISKLQSWDKVSSCFPQYVNSKQGAINVANCQRQLTEFWTELCQREFKEIMEERNVEQKLNELDELILEAKERYTDRDQDEVNKGPAIDELSSKELVECHLYSQRMHAIHEIDERLAKVNEMNDQLAQELKDLETQVEVEKNEIGKMYDEYLGSHTD
notes: Dsn1, S. cerevisiae S288c; Nsl1, S. cerevisiae S288c; Nnf1^Δ180-C: Nnf1, S. cerevisiae S288c, residues 180-201 deleted; source: High-5 insect cells (two baculoviruses), purified (Strep-Tactin, SEC); copies: + + +

T1 sequence (P40460 whole entry, chain 1 of 4): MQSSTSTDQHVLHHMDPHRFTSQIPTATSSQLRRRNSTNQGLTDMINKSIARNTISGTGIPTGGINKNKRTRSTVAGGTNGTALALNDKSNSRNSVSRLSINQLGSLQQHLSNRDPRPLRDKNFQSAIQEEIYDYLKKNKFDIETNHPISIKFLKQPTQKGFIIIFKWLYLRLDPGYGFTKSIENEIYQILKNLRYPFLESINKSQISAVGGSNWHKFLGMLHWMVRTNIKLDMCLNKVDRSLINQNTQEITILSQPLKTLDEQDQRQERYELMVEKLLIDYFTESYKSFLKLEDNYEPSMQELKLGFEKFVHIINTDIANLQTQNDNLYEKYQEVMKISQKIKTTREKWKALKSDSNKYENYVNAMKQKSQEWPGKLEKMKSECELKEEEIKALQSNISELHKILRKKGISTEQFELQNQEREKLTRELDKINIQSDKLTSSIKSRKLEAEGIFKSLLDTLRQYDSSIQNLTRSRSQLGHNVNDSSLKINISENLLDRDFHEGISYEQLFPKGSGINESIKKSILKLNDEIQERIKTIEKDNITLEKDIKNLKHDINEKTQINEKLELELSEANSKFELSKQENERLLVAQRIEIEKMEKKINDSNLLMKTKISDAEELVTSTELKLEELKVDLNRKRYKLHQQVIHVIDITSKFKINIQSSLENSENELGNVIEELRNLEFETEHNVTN
T1 sequence (P33895 whole entry, chain 2 of 4): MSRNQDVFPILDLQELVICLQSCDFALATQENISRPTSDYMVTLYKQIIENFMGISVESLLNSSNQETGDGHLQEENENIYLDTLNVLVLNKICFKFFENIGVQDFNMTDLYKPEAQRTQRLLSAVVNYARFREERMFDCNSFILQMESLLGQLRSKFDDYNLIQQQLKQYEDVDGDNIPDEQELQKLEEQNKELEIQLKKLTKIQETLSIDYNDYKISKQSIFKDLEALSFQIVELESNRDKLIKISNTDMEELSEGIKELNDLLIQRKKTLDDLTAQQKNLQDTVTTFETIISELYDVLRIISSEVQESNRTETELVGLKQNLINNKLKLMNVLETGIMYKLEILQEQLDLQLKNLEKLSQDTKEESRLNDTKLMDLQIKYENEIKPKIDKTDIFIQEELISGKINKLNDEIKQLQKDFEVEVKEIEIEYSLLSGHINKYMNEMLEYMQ
T1 sequence (Q04477 whole entry, chain 3 of 4): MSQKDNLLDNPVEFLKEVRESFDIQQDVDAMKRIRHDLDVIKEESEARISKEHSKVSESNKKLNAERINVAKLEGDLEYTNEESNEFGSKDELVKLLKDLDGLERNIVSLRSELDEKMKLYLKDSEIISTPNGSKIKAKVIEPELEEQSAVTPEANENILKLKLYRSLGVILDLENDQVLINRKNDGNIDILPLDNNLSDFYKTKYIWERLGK
T1 sequence (P40014 whole entry, chain 4 of 4): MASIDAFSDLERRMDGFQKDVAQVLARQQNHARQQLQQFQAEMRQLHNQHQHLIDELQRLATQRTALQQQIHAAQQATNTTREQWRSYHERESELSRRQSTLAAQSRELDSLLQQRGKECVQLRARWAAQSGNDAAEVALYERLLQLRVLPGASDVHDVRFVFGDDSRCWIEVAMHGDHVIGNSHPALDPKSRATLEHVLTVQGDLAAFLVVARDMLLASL

The experiment addresses T1, S. cerevisiae Ndc80 complex (Ndc80, Nuf2, Spc24, Spc25) (S. cerevisiae, UniProt P40460 1-691; P33895 1-451; Q04477 1-213; P40014 1-221).
T1 construct: Ndc80, S. cerevisiae S288c; Nuf2, S. cerevisiae S288c; Spc24, S. cerevisiae S288c; Spc25, S. cerevisiae S288c; The Twin-Strep tag on Nuf2 is TEV cleavable; no cleavage is described; source: High-5 insect cells (two baculoviruses), purified (Strep-Tactin, Resource Q, SEC); copies: + + +
Description: SEC; 4 μM Mis12c^Mtw1c (wild type or mutant) mixed with 4 μM Ndc80c in KMN buffer, 30 min on ice; Superose 6 3.2/300; fractions on SDS-PAGE. As to conditions: both partners purified.
For the molecule B1, the binding result was “binds”.
For B2, the binding result is “binds”.
In the case of B3 it was “binds”.
As for B4, the binding result is on record as “binds”.
